Patent US8227408B2, “Leptin as an anti-amyloidogenic biologic and methods for delaying the onset and reducing Alzheimer's disease-like pathology” (Neurotez, Inc., priority 2005, dated 2012)

Tested on: SY5Y cells
Experiment: Aβ production by SY5Y cells
Format: cell-based, human
Details: total Aβ in conditioned media, 5 h; concentration (TOFA 200 μM, cerulenin 200 μM, etomoxir 40 μM, peptide YY (3-36) 25 μM, CNTF 25 μM, leptin 400 ng/ml); mean ± SEM; NS = non-significant
Text: Cell cultures, Treatments, Antibodies and Immunoassays. SY5Y cells (human neuroblastoma) were maintained in culture as described (Johnsingh et al., FEBS Lett. 465:53-8 (2000)). Primary neural cultures were obtained from ε16 rat embryonic cortex, as described (Shimoda et al., 1992. Brain Res. 586:319-31 (1992)). These were either grown as mixed cultures (Johnsingh et al., FEBS Lett. 465:53-8 (2000)) or grown under conditions that favor the isolation and proliferation of astrocytes (Takeshima et al., J Neurosci. 14:4769-79 (1994)).
SY5Y and hyg-sa134-Neuro2a cells were treated at 80% confluency (see below). Primary neural cultures from mouse embryos were allowed to grow for 6-12 days following plating and prior to viral infection and treatments.
About 100 ng/ml or about 400 ng/ml leptin (Harbor-UCLA, CA), was added in cell culture medium for 2 or 5 h. Cells were approximately 80% confluent at the time of treatment. Peptide YY (3-36) (Phoenix Pharmaceuticals, Inc., CA), and CNTF (Sigma-Aldrich, Mo.) were added at about 25 μM or 150 μM for the same incubation periods. TOFA, etomoxir (Research Biochemicals International, MA) and cerulenin (Sigma-Aldrich, Mo.) were used as described below.
For the determination of Aβ peptide several methodologies also were used. SY5Y cells in culture were metabolically labeled with ^35S-[Met] as described (Figueiredo-Pereira et al. J Neurochem. 72:1417-22 (1999)), followed by immunoprecipitation, resolution of the immunoprecipitates on SDS-PAGE, autoradiography, and densitometric analysis of the autoradiogram. Neuro2a cells were stably transfected with hyg-sa134 (K. Sambamurti, S. Carolina Medical Center, SC) and Aβ40 (SEQ ID NO: 4) plus Aβ42 (SEQ ID NO: 5) plus Aβ43 (SEQ ID NO: 6) (Total Aβ) in the medium then was quantified by sandwich ELISAs developed with 4G8 and 6 ε10 monoclonal antibodies (Signet, Mass.) as described (Figueiredo-Pereira et al., J Neurochem. 72:1417-22 (1999)). Commercially available ELISA kits (KMI Diagnostics, MN) were used for the separate determination of Aβ40 (SEQ ID NO:4) and Aβ42/43 (SEQ ID NO:5/SEQ ID NO:6) in formic acid extracts of mice brains. Flotillin was detected using monoclonal anti-flotillin-1 antibodies (BD Biosciences, CA). Actin was detected using monoclonal anti-actin antibodies (Research Diagnostics, Inc, NJ).
Human (SYSY) or mouse neuroblastoma cell-lines (Neuro2a) commonly are used to study amyloid β metabolism in vitro. Neuro2a cells are stably transfected with hyg-sa134 (SEQ ID NO: 11), a plasmid driving the expression of a recombinant fusion protein containing the human C-terminal fragment of APP of about 134 amino acids, CAPP134 (SEQ ID NO: 10). Here, 5Y5Y or Neuro2a cultures were treated for 2 or 5 h with about 100 ng/ml or about 400 ng/ml leptin (FIG. 4a, 4b). Similarly, primary neurons from embryonic rat brain, infected with an adenovirus to direct the expression of CAPP134 (SEQ ID NO:10) also were treated according to the same regimen.

B1: Leptin: peptide hormone controlling adaptive metabolic mechanisms to energy availability; leptin (Harbor-UCLA) in vitro, recombinant murine leptin in mice (protein, UniProt P41160 22-167, looked up)
Leptin: VPIQKVQDDTKTLIKTIVTRINDISHTQSVSAKQRVTGLDFIPGLHPILSLSKMDQTLAVYQQVLTSLPSQNVLQIANDLENLRDLLHLLAFSKSCSLPQTSGLQKPESLDGVLEASLYSTEVVALSRLQGSLQDILQQLDVSPEC
With B1 the “SY5Y Aβ (% control)” value was 38 ± 7 % control.
